Results on 167 variants are retold here after the RNAGym collection of RNA variant scans (doi:10.7554/elife.80360).

The labels stand for the following.
B1: Hairpin Ribozyme (parent)
chain: GUCCUCUUUCACGUGCGCGUGAAAGAGAGAAGUGAACCAGAGAAACACACGUUGUGGUAUAUUACCUGGUA

The variants in the data set derive from B1. Put plainly: self-cleavage, relative activity (ratio to wild type); higher = more cleavage; co-transcriptional.
In the case of A49C U53A, the self-cleavage came out at 0.0758. Next, G15U A30C: 0.173; U8A C18U: 0.779; U7A C38G: 0.2. Next, A49G A64U: 0.0802. As to C50U U52C, the self-cleavage is 0.343. Next, C12G A45U: 0.116; A41U U52C: 1.11; U52C U70C: 1.11. Next, G13C G69A: 0.214; U14G G68U: 0.333. As for G32A G54U, the self-cleavage is 0.136. Consider C12U A26G, for which the self-cleavage was 0.796. U33C U55C: the self-cleavage was found to be 0.173. For G13U C66G, the self-cleavage came to 0.11. Next, A22G U55A: 0.318. For C16G C37U, the self-cleavage stood at 0.346. U53A C66U: the self-cleavage came out at 0.649.

Regarding C37A G56U, the self-cleavage is 0.189.

In the case of C4A A71C, the self-cleavage was 0.674. As for A64C C65U, the self-cleavage is 0.223.

Regarding C38U C65A, the self-cleavage worked out at 0.453. Next, U58C A61C: 0.145. With C6A A43C, the self-cleavage was determined as 0.197.

With G29A A41G, the self-cleavage is 0.106. In the case of A26C G27A, the self-cleavage was determined as 0.139. G17C A23G: the self-cleavage stood at 0.458. G25A C50A: the self-cleavage was found to be 0.107. Take G19U U60A: the self-cleavage was determined as 0.804. As for C38G A45C, the self-cleavage worked out at 0.0432. With U52A G69A, the self-cleavage stood at 0.464. With C18A C48U, the self-cleavage was found to be 0.214. On to A35U G69U, for which the self-cleavage came to 0.111. Consider G42A U52G, for which the self-cleavage was 0.0884. For G56U U58G, the self-cleavage turned out to be 0.0453.

For U9A G51A, the self-cleavage was determined as 0.688. Regarding C10U G34U, the self-cleavage is 1.09. For G13C G54A, the self-cleavage came to 0.368. As to U7C C66A, the self-cleavage worked out at 0.217. Next, U7A G13U: 0.774.

Take C12A C48U: the self-cleavage was found to be 0.112. On to G15C A71U, for which the self-cleavage turned out to be 0.793.

Turning to C46G U63G, the self-cleavage came to 0.0876. As to G1A A44G, the self-cleavage came to 0.167. Take G21C A44C: the self-cleavage was determined as 0.0985. U2G G57A: the self-cleavage was 0.169.

Take G34A C38A: the self-cleavage stood at 0.267. For A41U A45U, the self-cleavage was 0.0714.

In the case of U9G U63C, the self-cleavage was 0.094. As to A28G A30U, the self-cleavage was found to be 0.0576.

U9A A61G: the self-cleavage is 0.148. For the variant G56C G68U, the self-cleavage turned out to be 0.173.

Consider G56A U67A, for which the self-cleavage was determined as 0.197.

As for A31U U70G, the self-cleavage was determined as 0.27.

With A22U U33A, the self-cleavage worked out at 0.172.

As to G19A G57C, the self-cleavage was determined as 0.138.

For C18A G68C, the self-cleavage amounted to 0.18. For the variant G13U G15C, the self-cleavage is 0.608.

Turning to C48G U67G, the self-cleavage turned out to be 0.113. Turning to C3U C65G, the self-cleavage turned out to be 0.153. As for G15A A28U, the self-cleavage was found to be 0.588. Next, U5C G29U: 0.114; C12U A28C: 0.437; U7G U8A: 0.942. For C12A U62G, the self-cleavage was determined as 0.143. Consider A30U G40A, for which the self-cleavage is 0.0894. Take C3U C12G: the self-cleavage turned out to be 0.471. With A23G G25U, the self-cleavage was found to be 0.357. Take A35C A61U: the self-cleavage is 0.125. G54A G69C: the self-cleavage came out at 0.177.

G15U A44U: the self-cleavage was determined as 0.174. Next, G17A A41G: 0.833. Next, A45C C65U: 0.102; A45G U62A: 0.0572; G15U A41U: 1.41. For the variant A28G C66A, the self-cleavage came to 0.231. Regarding U7C U52C, the self-cleavage came out at 0.528. For G21A A59G, the self-cleavage is 0.125. With G15A G42U, the self-cleavage amounted to 0.301.

As for G27C U52C, the self-cleavage amounted to 0.22. As for A41C U67G, the self-cleavage was determined as 0.124. On to A49U U70C, for which the self-cleavage was found to be 0.124. Regarding A36U C38A, the self-cleavage came to 0.0871. Next, A11U G21A: 0.586. U8A G51C: the self-cleavage turned out to be 0.602.

In the case of U7C A36G, the self-cleavage was found to be 0.925. Take U7G C46G: the self-cleavage worked out at 0.134. In the case of G57U U58A, the self-cleavage is 0.309.

Regarding U2A C37U, the self-cleavage was determined as 0.23. Take G15C G68A: the self-cleavage is 0.324. Next, G27A A36C: 0.253. On to A23G U70C, for which the self-cleavage stood at 0.934.

G56C U63G: the self-cleavage is 0.175. Consider C3U A39U, for which the self-cleavage amounted to 0.253. With U5G U67G, the self-cleavage amounted to 0.164. Next, C12A A28G: 0.836; C3A G19A: 0.59; C48G A59U: 0.0386. Turning to A31G C65A, the self-cleavage was 0.891. For the variant U33G C38A, the self-cleavage amounted to 0.139. Take U2A A59G: the self-cleavage stood at 0.156. Consider U14A C37U, for which the self-cleavage was 0.481. On to C38A A71U, for which the self-cleavage is 0.129. Take G15U A35U: the self-cleavage came to 0.842. Consider G13A U55A, for which the self-cleavage amounted to 0.333. As to A23U U60C, the self-cleavage came out at 0.749. Regarding G42A U60C, the self-cleavage was 0.371. With C3G A39U, the self-cleavage turned out to be 0.114. Consider C3G A39G, for which the self-cleavage turned out to be 0.108.

With A23G A30G, the self-cleavage worked out at 0.211. Regarding U52C U53G, the self-cleavage was determined as 1.

Consider C4U A35G, for which the self-cleavage turned out to be 0.304. As for U5A C65G, the self-cleavage amounted to 0.276. In the case of A61U C66U, the self-cleavage stood at 0.176. C18G G40A: the self-cleavage came to 0.344. For G15C U33G, the self-cleavage came out at 0.0645. Consider G34A A71G, for which the self-cleavage came out at 1.41. Turning to C37G U52C, the self-cleavage was determined as 0.242. Consider A28U G69C, for which the self-cleavage stood at 0.219. On to A43U G68A, for which the self-cleavage was 0.0877. As to A23G G42C, the self-cleavage came to 0.33. On to U9A G17U, for which the self-cleavage worked out at 0.65. Consider C10G G40A, for which the self-cleavage is 0.194. In the case of A45C U63A, the self-cleavage was determined as 0.0272. U60G C66U: the self-cleavage worked out at 0.361. Take A26C G42A: the self-cleavage came to 0.12. As for U5G U53G, the self-cleavage stood at 0.179.

For G56C A61U, the self-cleavage was found to be 0.177. As to G54A C65A, the self-cleavage turned out to be 0.497. With U2A A43G, the self-cleavage was found to be 0.138. Next, A22U U70A: 0.768.

For the variant A23G G51C, the self-cleavage came to 0.91. Turning to C66G U67G, the self-cleavage turned out to be 0.211.

Take C37G A43G: the self-cleavage was determined as 0.261.

Regarding G27U A36C, the self-cleavage turned out to be 0.0992. On to A47U U52G, for which the self-cleavage turned out to be 0.256. With C12A U33A, the self-cleavage was determined as 0.158. On to G21U C37U, for which the self-cleavage worked out at 0.373. For G13A U14A, the self-cleavage amounted to 0.99.

On to A31C C65U, for which the self-cleavage came out at 0.0838.

As to C16A A36C, the self-cleavage was determined as 0.399. In the case of C10U A28C, the self-cleavage is 0.305.

As for A23C A43U, the self-cleavage stood at 0.115. Consider G1C G69C, for which the self-cleavage is 0.303. On to C18U G51A, for which the self-cleavage amounted to 1.26. Next, A11C A22U: 0.554.

For the variant U7A G27A, the self-cleavage came to 0.27. Next, C18U G19C: 0.89; G13C A64C: 0.149. As for U63C A71U, the self-cleavage amounted to 0.191. For the variant G25A U63C, the self-cleavage was 0.17. C10A U67G: the self-cleavage was 0.171.

Consider C16U U53C, for which the self-cleavage came to 0.564. For the variant U52A G68A, the self-cleavage is 0.337. Next, A35G A43G: 0.082; A44U U70G: 0.201. Take A43U U58A: the self-cleavage stood at 0.0678. U8C G29U: the self-cleavage is 0.081.

C10A G19A: the self-cleavage was determined as 0.761. Next, G13A A30C: 0.0871; G42U A44U: 0.19; U58C C66A: 0.201. Next, C48U U70C: 0.0914; U7G G15C: 0.836; C37A U70G: 0.446. Next, G15A G17U: 1.05. With A35G A36G, the self-cleavage stood at 0.749.
